Results reported in patent publication US20160333422A1 (UNITED STATES OF AMERICA AS REPRESENTED BY THE SECRETARY …, published 2016).

T1: NY-BR-1 expressed from a transfected vector/plasmid in target cells (Homo sapiens (Human), UniProt Q9BXX3 1-1397)
T1 sequence: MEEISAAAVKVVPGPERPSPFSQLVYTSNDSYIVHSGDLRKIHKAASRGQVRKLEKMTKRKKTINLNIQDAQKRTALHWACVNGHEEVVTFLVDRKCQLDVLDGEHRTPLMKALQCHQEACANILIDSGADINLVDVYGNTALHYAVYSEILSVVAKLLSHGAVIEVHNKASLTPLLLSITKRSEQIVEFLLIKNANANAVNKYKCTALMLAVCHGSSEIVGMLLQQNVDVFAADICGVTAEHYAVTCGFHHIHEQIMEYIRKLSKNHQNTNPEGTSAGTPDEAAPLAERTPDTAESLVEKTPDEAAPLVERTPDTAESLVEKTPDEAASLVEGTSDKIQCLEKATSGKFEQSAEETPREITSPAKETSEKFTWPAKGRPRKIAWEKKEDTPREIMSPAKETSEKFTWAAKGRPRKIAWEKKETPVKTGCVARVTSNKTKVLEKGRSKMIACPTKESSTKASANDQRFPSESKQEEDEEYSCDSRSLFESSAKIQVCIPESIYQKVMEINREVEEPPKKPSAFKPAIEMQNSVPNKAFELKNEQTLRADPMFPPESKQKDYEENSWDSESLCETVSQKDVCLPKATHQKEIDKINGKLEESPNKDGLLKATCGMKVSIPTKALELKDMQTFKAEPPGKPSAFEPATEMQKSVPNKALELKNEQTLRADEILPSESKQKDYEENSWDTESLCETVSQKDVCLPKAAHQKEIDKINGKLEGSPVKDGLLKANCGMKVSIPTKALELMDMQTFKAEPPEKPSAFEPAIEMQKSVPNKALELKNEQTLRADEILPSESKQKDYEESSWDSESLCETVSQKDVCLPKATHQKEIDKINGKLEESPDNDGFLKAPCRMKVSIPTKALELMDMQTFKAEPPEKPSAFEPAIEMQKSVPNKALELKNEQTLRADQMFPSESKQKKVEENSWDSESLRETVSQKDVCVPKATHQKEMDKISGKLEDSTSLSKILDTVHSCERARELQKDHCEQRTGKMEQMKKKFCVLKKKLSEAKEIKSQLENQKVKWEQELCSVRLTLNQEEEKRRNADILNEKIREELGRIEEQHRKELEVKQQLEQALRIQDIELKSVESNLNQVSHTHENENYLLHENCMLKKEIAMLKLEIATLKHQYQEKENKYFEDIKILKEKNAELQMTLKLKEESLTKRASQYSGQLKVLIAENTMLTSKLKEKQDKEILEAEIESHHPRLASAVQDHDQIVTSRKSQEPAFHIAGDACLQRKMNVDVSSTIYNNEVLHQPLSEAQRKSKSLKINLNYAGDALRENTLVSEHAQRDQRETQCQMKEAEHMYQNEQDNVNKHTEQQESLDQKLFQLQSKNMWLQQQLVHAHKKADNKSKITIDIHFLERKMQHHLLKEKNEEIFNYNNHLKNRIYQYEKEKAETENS


Columns and labels:
[1] = target: NYBR1.1, an isoform of NYBR1, expressed from a plasmid in Cos7 cells, Q9BXX2; test: cell-based or functional assay
[2] = target: T1, NY-BR-1 expressed from a transfected …; test: cell-based or functional assay

Chain of NYBR1.1, an isoform of NYBR1, expressed from a plasmid in Cos7 cells, Q9BXX2 (Q9BXX2 whole entry, canonical isoform): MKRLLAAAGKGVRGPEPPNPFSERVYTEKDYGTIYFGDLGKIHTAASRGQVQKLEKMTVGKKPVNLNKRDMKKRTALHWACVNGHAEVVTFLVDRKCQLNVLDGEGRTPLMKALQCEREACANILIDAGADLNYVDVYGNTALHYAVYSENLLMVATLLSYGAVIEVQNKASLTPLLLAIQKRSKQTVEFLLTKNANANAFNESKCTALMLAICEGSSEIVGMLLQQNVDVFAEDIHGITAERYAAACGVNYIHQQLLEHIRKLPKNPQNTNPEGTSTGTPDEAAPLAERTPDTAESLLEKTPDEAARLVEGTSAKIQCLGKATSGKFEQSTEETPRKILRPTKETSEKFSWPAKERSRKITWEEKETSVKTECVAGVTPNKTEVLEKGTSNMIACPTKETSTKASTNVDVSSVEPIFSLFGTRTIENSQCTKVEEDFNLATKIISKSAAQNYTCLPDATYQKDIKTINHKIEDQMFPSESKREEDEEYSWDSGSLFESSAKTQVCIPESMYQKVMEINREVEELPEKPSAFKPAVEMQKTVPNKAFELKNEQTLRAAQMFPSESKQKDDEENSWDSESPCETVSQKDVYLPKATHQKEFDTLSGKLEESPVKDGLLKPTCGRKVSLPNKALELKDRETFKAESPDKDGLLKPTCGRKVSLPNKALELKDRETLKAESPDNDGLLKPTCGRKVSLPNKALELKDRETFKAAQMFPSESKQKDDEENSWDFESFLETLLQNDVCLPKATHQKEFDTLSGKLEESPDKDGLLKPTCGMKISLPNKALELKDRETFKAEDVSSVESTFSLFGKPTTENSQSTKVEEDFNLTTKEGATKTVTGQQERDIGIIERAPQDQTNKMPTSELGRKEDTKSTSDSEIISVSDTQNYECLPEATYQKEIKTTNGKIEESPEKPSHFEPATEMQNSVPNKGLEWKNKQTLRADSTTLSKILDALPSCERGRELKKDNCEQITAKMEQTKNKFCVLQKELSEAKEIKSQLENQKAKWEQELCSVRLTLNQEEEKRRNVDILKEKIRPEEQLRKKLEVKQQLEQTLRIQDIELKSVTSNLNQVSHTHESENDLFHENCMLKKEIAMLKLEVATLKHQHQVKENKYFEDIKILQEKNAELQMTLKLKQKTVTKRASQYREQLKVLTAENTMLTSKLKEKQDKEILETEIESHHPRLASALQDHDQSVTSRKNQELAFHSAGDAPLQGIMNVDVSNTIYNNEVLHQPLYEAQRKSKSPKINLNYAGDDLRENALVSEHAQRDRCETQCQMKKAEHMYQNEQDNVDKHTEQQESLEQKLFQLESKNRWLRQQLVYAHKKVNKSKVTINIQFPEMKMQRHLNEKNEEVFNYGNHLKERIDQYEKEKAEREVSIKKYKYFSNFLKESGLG

IFN-γ secretion (pg/ml) upon co-culture with Cos7 cell line transfected with plasmid NYBR 1.1; Patient 5 [1] | IFN-γ secretion (pg/ml) upon co-culture with Cos7 cell line transfected with plasmid NYBR 1.1; Patient 6 [1] | IFN-γ secretion (pg/ml) upon co-culture with Cos7 cell line transfected with plasmid NYBR 1.1; Patient 7 [1] | IFN-γ secretion (pg/ml) upon co-culture with Cos7 cell line transfected with plasmid NYBR1; Patient 5 [2] | IFN-γ secretion (pg/ml) upon co-culture with Cos7 cell line transfected with plasmid NYBR1; Patient 6 [2] | IFN-γ secretion (pg/ml) upon co-culture with Cos7 cell line transfected with plasmid NYBR1; Patient 7 [2] | Binder
527 pg/mL | 411 pg/mL | 1260 pg/mL | 1620 pg/mL | 929 pg/mL | 3290 pg/mL | fourth generation anti-NY-BR-1 CAR (NYBR1 ScFv BBZ) (other) VQLQESGPDLVKPSQSLSLTCTVTGYSITSGYSWHWIRQFPGNKLEWMGYIHYSGDTDYNPSLKSRFSITRDTSKNQFFLQLNSVTTEDTATYYCATPGGFVYWGQGTLVTVSAGGGGSGGGGSGGGGSDVVMTQTPLTLSVTIGQPASISCKSSQSLLDSDGKTYLHWLLQRPGQSPKRLIFLVSKLDSGVPDRFTGSGSGTDFTLKISRVEAEDLGVYYCWQGTHFPQTFGGGTKLEIKAAAFVPVFLPAKPTTTPAPRPPTPAPTIASQPLSLRPEACRPAAGGAVHTRGLDFACDIYIWAPLAGTCGVLLLSLVITLYCNHRNRFSVVKRGRKKLLYIFKQPFMRPVQTTQEEDGCSCRFPEEEEGGCELRVKFSRSADAPAYQQGQNQLYNELNLGRREEYDVLDKRRGRDPEMGGKPRRKNPQEGLYNELQKDKMAEAYSEIGMKGERRRGKGHDGLYQGLSTATKDTYDALHMQALPPR
0 pg/mL | 14 pg/mL | 26 pg/mL | 51 pg/mL | 48 pg/mL | 71 pg/mL | third generation anti-NY-BR-1 CAR (NYBR1-28BBZ) (other) VQLQESGPDLVKPSQSLSLTCTVTGYSITSGYSWHWIRQFPGNKLEWMGYIHYSGDTDYNPSLKSRFSITRDTSKNQFFLQLNSVTTEDTATYYCATPGGFVYWGQGTLVTVSAGGGGSGGGGSGGGGSDVVMTQTPLTLSVTIGQPASISCKSSQSLLDSDGKTYLHWLLQRPGQSPKRLIFLVSKLDSGVPDRFTGSGSGTDFTLKISRVEAEDLGVYYCWQGTHFPQTFGGGTKLEIKAAAFVPVFLPAKPTTTPAPRPPTPAPTIASQPLSLRPEACRPAAGGAVHTRGLDFACDIYIWAPLAGTCGVLLLSLVITLYCNHRNRSKRSRLLHSDYMNMTPRRPGPTRKHYQPYAPPRDFAAYRSRFSVVKRGRKKLLYIFKQPFMRPVQTTQEEDGCSCRFPEEEEGGCELRVKFSRSADAPAYQQGQNQLYNELNLGRREEYDVLDKRRGRDPEMGGKPRRKNPQEGLYNELQKDKMAEAYSEIGMKGERRRGKGHDGLYQGLSTATKDTYDALHMQALPPR
153 pg/mL | 51 pg/mL | 518 pg/mL | 1110 pg/mL | 555 pg/mL | 3590 pg/mL | second generation anti-NY-BR-1 CAR (NYBR1-28Z) (other) VQLQESGPDLVKPSQSLSLTCTVTGYSITSGYSWHWIRQFPGNKLEWMGYIHYSGDTDYNPSLKSRFSITRDTSKNQFFLQLNSVTTEDTATYYCATPGGFVYWGQGTLVTVSAGGGGSGGGGSGGGGSDVVMTQTPLTLSVTIGQPASISCKSSQSLLDSDGKTYLHWLLQRPGQSPKRLIFLVSKLDSGVPDRFTGSGSGTDFTLKISRVEAEDLGVYYCWQGTHFPQTFGGGTKLEIKAAAIEVMYPPPYLDNEKSNGTIIHVKGKHLCPSPLFPGPSKPFWVLVVVGGVLACYSLLVTVAFIIFWVRSKRSRLLHSDYMNMTPRRPGPTRKHYQPYAPPRDFAAYRSRVKFSRSADAPAYQQGQNQLYNELNLGRREEYDVLDKRRGRDPEMGGKPRRKNPQEGLYNELQKDKMAEAYSEIGMKGERRRGKGHDGLYQGLSTATKDTYDALHMQALPPR
